Tests used:
[1] = target: T1, human recombinant HLA-B*08:01 and b2m (human); assay: pMHC dissociation assay at 37 C; mean half-life grade
T1 construct: expressed in E. coli and purified; stability of the peptide-MHC complex read as b2m associated with the heavy chain over time at 37 C
Protocol: Peptide-MHC stability assays for HLA-B*08:01 peptides were performed. The data were obtained using a proximity based, homogenous, real-time assay in order to measure the dissociation of peptides from HLA class I molecules. First, human recombinant HLA-B*08:01 and b2m were expressed in E. coli and purified in a series of liquid chromatography based steps (Ferre et al., 2003; Ostergaard et al., 2001). Then, the stability of a peptide-MHC complex (pMHC) was determined by measuring the amount of b2m associated with the MHC heavy chain over time at 37° C. (Harndahl et al., 2012). The stability of each pMHC, expressed as the half life of b2m associated with the respective heavy chain, was calculated by fitting the data to a one-phase dissociation equation.

HLA-A*02:01 = target: T2, HLA-A*02:01 (human); assay: UV-exchange b2m ELISA; exchange-yield grade
T2 construct: also called peptide-receptive MHC molecules
How it was run: (§1)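 Peptide-MHC complexes formed by UV-triggered exchange of a cleavable ligand for the test peptide. Exchange yield measured on streptavidin-coated plates by HRP anti-β2m ELISA (1 h, 37 °C; A450) on 100-fold diluted samples. Refolded HLA-A*02:01 monomers at 15-500 ng/ml served as standards.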

HLA-A*24:02 = target: T3, HLA-A*24:02 (human); assay: UV-exchange b2m ELISA; exchange-yield grade
T3 construct: also called peptide-receptive MHC molecules
How it was run: as §1

Row | Binder | mean half-life (T1/2) of peptide-MHC complex [1] [h] | peptide exchange yield (HLA-A*02:01) [%] | also measured
1 | YLLEKSRVI | 4 to 6 | – | –
2 | ALFKAWAL | – | > 75 | –
3 | QGLLRPVF | 4 to 6 | – | –
4 | MYKMKKPI | 2 to 4 | – | –
5 | YTFRYPLSL | – | 50 to 75 | –
6 | MGSARVAEL | 4 to 6 | – | –
7 | DMKKAKEQL | 2 to 4 | – | –
8 | SYSDLHYGF | – | – | peptide exchange yield (HLA-A*24:02): > 75%
9 | FLIEELLFA | – | > 75 | –
10 | DVKKKIKEV | 2 to 4 | – | –
11 | SLRLKNVQL | 2 to 4 | – | –
12 | SLGKHTVAL | – | 50 to 75 | –
13 | YASEGVKQV | – | 50 to 75 | –
14 | VLLPRLVSC | 2 to 4 | – | –
15 | ALKARTVTF | 6 to 10 | – | –
16 | DTDSSVHVQV | – | 10 to 20 | –
17 | HLLLKVLAF | 4 to 6 | – | –
18 | QAKTHSTL | 2 to 4 | – | –
19 | SAIPFSMTL | – | 50 to 75 | –
20 | FYFPTPTVL | – | – | peptide exchange yield (HLA-A*24:02): > 75%
21 | FAHHGRSL | – | 10 to 20 | –
22 | SVTESTHHL | – | 50 to 75 | –

Row | Binder | mean half-life (T1/2) of peptide-MHC complex [1] [h] | peptide exchange yield (HLA-A*02:01) [%] | also measured
23 | MLRKIAVAA | 2 to 4 | – | –
24 | TISSLTHEL | – | > 75 | –
25 | DMKYKNRV | 2 to 4 | – | –
26 | ALQAFEFRV | – | > 75 | –
27 | VLLAGFKPPL | – | 10 to 20 | –
28 | YPKARLAF | 6 to 10 | – | –
29 | YLVTKVVAV | – | > 75 | –
30 | FAFRKEAL | 4 to 6 | – | –
31 | RLLDFINVL | – | > 75 | –
32 | STIPALHEI | – | 50 to 75 | –
33 | TPKLRETSI | 4 to 6 | – | –
34 | SLPRFQVTL | – | > 75 | –
35 | GVATRVDAI | – | 20 to 50 | –
36 | KLKERNREL | 6 to 10 | – | –
37 | ALIYNLVGI | – | > 75 | –
38 | RLWDWVPLA | – | > 75 | –
39 | ALMRLIGCPL | – | > 75 | –
40 | LPKLAGLL | 2 to 4 | – | –
41 | HVKEKFLL | 4 to 6 | – | –
42 | RYSDSVGRVSF | – | – | peptide exchange yield (HLA-A*24:02): > 75%
43 | IMFDDAIERA | – | > 75 | –
44 | SIKTKSAEM | 6 to 10 | – | –

Row | Binder | mean half-life (T1/2) of peptide-MHC complex [1] [h] | peptide exchange yield (HLA-A*02:01) [%] | also measured
45 | PLPRPGAVL | – | 10 to 20 | –
46 | VSSSLTLKV | – | 10 to 20 | –
47 | NAMLRKVAV | 2 to 4 | – | –
48 | LNKQKVTF | > 10 | – | –
49 | LPRLKAFMI | 4 to 6 | – | –
50 | IYSPQFSRL | – | – | peptide exchange yield (HLA-A*24:02): > 75%
51 | MAAVKQAL | 4 to 6 | – | –
52 | VGREKKLAL | 4 to 6 | – | –
53 | VLKHKLDEL | 2 to 4 | – | –
54 | KVVSVLYNV | – | > 75 | –
55 | RMTTQLLLL | – | 50 to 75 | –
56 | MPNLRSVDL | 4 to 6 | – | –
57 | ISVPAKTSL | – | 10 to 20 | –
58 | VYHDDKQPTF | – | – | peptide exchange yield (HLA-A*24:02): > 75%
59 | SLLDLYQL | – | 20 to 50 | –
60 | EAMKRLSYI | 2 to 4 | – | –
61 | VYTFLSSTL | – | – | peptide exchange yield (HLA-A*24:02): > 75%
62 | TSMPRSSAM | 6 to 10 | – | –
63 | RQPNILVHL | – | 20 to 50 | –
64 | ALKTTTTAL | 2 to 4 | – | –
65 | TSHERLTTL | 4 to 6 | – | –
66 | KYEKIFEML | – | – | peptide exchange yield (HLA-A*24:02): > 75%
